The values below are quoted from earlier work in article PMC7465391, “1,4-Disubstituted 1,2,3-Triazoles as Amide Bond Surrogates for the Stabilisation of Linear Peptides with Biological Activity” (Molecules, 2020).

In general, Ki refers to the equilibrium dissociation constant of an inhibitor or competing ligand from its target.

This series concerns the target delta opioid receptor (DOPr) (UniProt P41143). The series can be described thus: radioligand.

Take Leu-enkephalin: the inhibition constant Ki is 6.3 nM.
